For assay [1], the target named is T1, SARS-CoV-1 Receptor Binding Domain (RBD) protein (SARS-CoV-1, UniProt P59594 306-527).
T1 construct: also called SARS1
Put plainly: SPR Carterra LSA, scFv captured via anti-V5.

For assay [2], the target named is T2, MERS Receptor Binding Domain (RBD) protein (Middle East Respiratory Syndrome (MERS) …, UniProt K9N5Q8 367-606).
T2 construct: also called Middle East Respiratory Syndrome (MERS) virus
T2 sequence: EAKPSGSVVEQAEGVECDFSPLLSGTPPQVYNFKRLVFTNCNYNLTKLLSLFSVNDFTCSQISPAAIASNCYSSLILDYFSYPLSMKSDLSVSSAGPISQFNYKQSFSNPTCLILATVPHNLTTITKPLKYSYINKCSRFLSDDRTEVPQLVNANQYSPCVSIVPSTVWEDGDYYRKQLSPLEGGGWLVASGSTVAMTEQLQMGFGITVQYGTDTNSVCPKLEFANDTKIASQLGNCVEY
The experiment in a line: SPR Carterra LSA, scFv captured via anti-V5.

The target in assay [3] is SARS-CoV-2 Receptor Binding Domain (RBD) protein (SARS-CoV-2, UniProt P0DTC2 319-541). The experiment in a line: SPR Carterra LSA, scFv captured via anti-V5, 1:1 fit.

B1: COVID19_P22_E12 (scFv, V domains shown)
VH: QVQLVQSGAEVKKPGSSVKVSCKASGGTFSSYAINWVRQAPGQGLEWMGGIIPVLHTVDYAQRLQGRVTITADESTSTAYMELSSLRSEDTAVYYCAGEWGISTPMDVWGQGTLVTVSS
VL: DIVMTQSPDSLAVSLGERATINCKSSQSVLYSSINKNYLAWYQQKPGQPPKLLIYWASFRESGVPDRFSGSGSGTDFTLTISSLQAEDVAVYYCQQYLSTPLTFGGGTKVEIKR
As to B1, the binding result in assay [1] and in assay [2] was “no binding (tested: 300 nM)” in each case.

B2: COVID19_P21_A12 (scFv, V domains shown)
VH: QVQLVQSGAEVKKPGSSVKVSCKASGGTFSSYAISWVRQAPGQGLEWMGSVIPVFGRPNYAQKFQGRVTITADESTSTAYMELSSLRSEDTAVYYCAGEWGISTPMDVWGQGTLVTVSS
VL: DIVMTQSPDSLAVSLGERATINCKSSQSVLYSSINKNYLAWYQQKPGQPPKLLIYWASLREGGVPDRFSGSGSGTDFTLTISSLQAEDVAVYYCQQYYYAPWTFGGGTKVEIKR
For the molecule B2, the binding result in assay [1] and in assay [2] was “no binding (tested: 300 nM)” throughout.

B3: COVID19_P21_F08 (scFv, V domains shown)
VH: QVQLVQSGAEVKKPGSSVKVSCKASGGTFSTYAFNWVRQAPGQGLEWMGVINTGGGSVTYAQKFQGRVTITADESTSTAYMELSSLRSEDTAVYYCAGGSGISTPGAVWGQGTLVTVSS
VL: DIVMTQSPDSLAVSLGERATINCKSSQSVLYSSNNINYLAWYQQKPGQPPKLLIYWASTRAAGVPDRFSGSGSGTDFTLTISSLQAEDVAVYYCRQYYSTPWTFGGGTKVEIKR
For B3, the binding result in assay [1] and in assay [2] was “no binding (tested: 300 nM)” throughout.

B4: COVID19_P22_F07 (scFv, V domains shown)
VH: QVQLVQSGAEVKKPGSSVKVSCKASGGTFSSYAISWVRQAPGQGLEWMGGIIPIFGSTASYAQKFQGRVTITADESTSTAYMELSSLRSEDTAVYYCAGEWGISTPMDVWGQGTLVTVSS
VL: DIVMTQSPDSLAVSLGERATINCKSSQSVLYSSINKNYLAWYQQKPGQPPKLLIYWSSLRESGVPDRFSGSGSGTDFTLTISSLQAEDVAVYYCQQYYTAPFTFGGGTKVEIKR
As to B4, the binding result in assay [1] and in assay [2] was “no binding (tested: 300 nM)” throughout.

B5: COVID19_P10_A09 (scFv, V domains shown)
VH: QVQLVQSGAEVKKPGSSVKVSCKASGYTFTDYYIHWVRQAPGQGLEWMGWMNPNSGNTGYAQNFQGRVTITADESTSTAYMELSSLRSEDTAVYYCAGGSGISTAWDVWGQGTLVTVSS
VL: DIVMTQSPDSLAVSLGERATIRCTSSLSLQDRSNNKNYLTWYQQKPGQPPKLLIYWASTRESGVPDRFSGSGSGTDFTLTISSLQAEDVAVYYCQQHYSAPLTFGGGTKVEIKR
Regarding B5, the binding result in assay [1] and in assay [2] was “no binding (tested: 300 nM)” each time.

B6: COVID19_P09_C09 (scFv, V domains shown)
VH: QVQLVQSGAEVKKPGSSVKVSCKASGGTFSSYAISWVRQAPGQGLEWMGIIDPSGGSTSYAQQFQGRVTITADESTSTAYMELSSLRSEDTAVYYCAGGSGISTPMDVWGQGTLVTVSS
VL: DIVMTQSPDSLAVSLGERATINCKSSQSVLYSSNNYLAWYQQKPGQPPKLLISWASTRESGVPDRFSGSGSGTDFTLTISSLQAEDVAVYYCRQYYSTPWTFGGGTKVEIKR
For the molecule B6, the binding result in assay [1] and in assay [2] was “no binding (tested: 300 nM)” each time.

B7: COVID19_P21_B08 (scFv, V domains shown)
VH: QVQLVQSGAEVKKPGSSVKVSCKASGGTFSSYAISWVRQAPGQGLEWMGVINTGGGSVTYAQKFQGRVTITADESTSTAYMELSSLRSEDTAVYYCAGHWGISTPMDVWGQGTLVTVSS
VL: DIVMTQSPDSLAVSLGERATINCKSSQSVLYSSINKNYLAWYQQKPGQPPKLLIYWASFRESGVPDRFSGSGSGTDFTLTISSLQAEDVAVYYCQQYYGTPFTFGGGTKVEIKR
In the case of B7, the binding result in assay [1] and in assay [2] was “no binding (tested: 300 nM)” in each case.

B8: COVID19_P21_F11 (scFv, V domains shown)
VH: QVQLVQSGAEVKKPGSSVKVSCKASGGTFSSYAISWVRQAPGQGLEWMGIIYPGDSTARYSQKFQGRVTITADESTSTAYMELSSLRSEDTAVYYCAGGSGISTLYDVWGQGTLVTVSS
VL: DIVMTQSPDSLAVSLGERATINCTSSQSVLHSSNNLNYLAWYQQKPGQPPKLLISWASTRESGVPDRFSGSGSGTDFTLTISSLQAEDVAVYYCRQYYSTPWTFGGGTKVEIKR
For the molecule B8, the binding result in assay [1] is recorded as “no binding (tested: 300 nM)”. Besides, in assay [2], the binding result is given as “no binding (tested: 300 nM)”. In assay [3], this molecule returned a dissociation constant Kd of 1.1 nM and a koff of 5.7e-05 s⁻¹.

B9: COVID19_P09_E11 (scFv, V domains shown)
VH: QVQLVQSGAEVKKPGSSVKVSCKASGGTFSNHAISWVRQAYGQGLEWMGIIYPGDGTTRYSQKFQGRVTITADESTSTAYMELSSLRSEDTAVYYCAGGSGISTPMDVWGQGTLVTVSS
VL: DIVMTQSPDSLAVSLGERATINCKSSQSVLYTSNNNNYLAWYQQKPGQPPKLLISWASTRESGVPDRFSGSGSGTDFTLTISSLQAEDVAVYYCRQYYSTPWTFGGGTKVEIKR
Consider B9, for which the binding result in assay [1] and in assay [2] was “no binding (tested: 300 nM)” in each case.

B10: COVID19_P21_F04 (scFv, V domains shown)
VH: QVQLVQSGAEVKKPGSSVKVSCKASGGTFSSYAISWVRQAPGQGLEWMGQINPSGDSTRYAQKFQGRVTITADESTSTAYMELSSLRSEDTAVYYCAGGSGISTPMDVWGQGTLVTVSS
VL: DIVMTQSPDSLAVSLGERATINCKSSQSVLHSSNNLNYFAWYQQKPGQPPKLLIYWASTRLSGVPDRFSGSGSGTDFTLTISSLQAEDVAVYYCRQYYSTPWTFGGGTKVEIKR
As to B10, the binding result in assay [1] and in assay [2] was “no binding (tested: 300 nM)” each time.

B11: COVID19_P22_B12 (scFv, V domains shown)
VH: QVQLVQSGAEVKKPGSSVKVSCKASGGTLSSYAISWVRQAPGQGLEWMGIIYPGDSETRYSQKFQGRVTITADESTSTAYMELSSLRSEDTAVYYCAGGSGISTPRSVWGQGTLVTVSS
VL: DIVMTQSPDSLAVSLGERATINCKSSRILSYSPDNKNYLAWYQQKPGQPPKLLIYWASTRESGVPDRFSGSGSGTDFTLTISSLQAEDVAVYYCQQSYITPYTFGGGTKVEIKR
As to B11, the binding result in assay [1] and in assay [2] was “no binding (tested: 300 nM)” throughout.

B12: COVID19_P09_G02 (scFv, V domains shown)
VH: QVQLVQSGAEVKKPGSSVKVSCKASGGTFSSYAISWVRQAPGQGLEWMGIIYPGDSTTNYSQKFQGRVTITADESTSTAYMELSSLRSEDTAVYYCAGHWGISTPMDVWGQGTLVTVSS
VL: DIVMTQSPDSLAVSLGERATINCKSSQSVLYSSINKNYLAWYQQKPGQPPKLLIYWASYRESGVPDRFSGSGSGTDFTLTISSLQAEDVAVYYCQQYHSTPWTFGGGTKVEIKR
Take B12: the binding result in assay [1] and in assay [2] was “no binding (tested: 300 nM)” throughout.

B13: COVID19_P21_B09 (scFv, V domains shown)
VH: QVQLVQSGAEVKKPGSSVKVSCKASGYTFTGHYMHWVRQAPGQGLEWMGIIYPGDSEARYSQKFQGRVTITADESTSTAYMELSSLRSEDTAVYYCAGGSGISTPMDVWGQGTLVTVSS
VL: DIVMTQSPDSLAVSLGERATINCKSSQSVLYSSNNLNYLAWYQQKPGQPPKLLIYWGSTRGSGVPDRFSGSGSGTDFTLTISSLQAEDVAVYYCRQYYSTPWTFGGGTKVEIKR
Consider B13, for which the binding result in assay [1] and in assay [2] was “no binding (tested: 300 nM)” each time.

B14: COVID19_P09_H08 (scFv, V domains shown)
VH: QVQLVQSGAEVKKPGSSVKVSCKASGGTFSSYAISWVRQAPGQGLEWMGGIIPIFGTTNYAQKFQGRVTITADESTSTAYMELSSLRSEDTAVYYCAGEWGISTPMDVWGQGTLVTVSS
VL: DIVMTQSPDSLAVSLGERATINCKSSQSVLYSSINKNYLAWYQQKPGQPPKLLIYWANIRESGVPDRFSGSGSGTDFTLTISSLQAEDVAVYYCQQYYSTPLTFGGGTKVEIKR
Regarding B14, the binding result in assay [1] and in assay [2] was “no binding (tested: 300 nM)” each time.

B15: COVID19_P09_B07 (scFv, V domains shown)
VH: QVQLVQSGAEVKKPGSSVKVSCKASGGTFSSYAISWVRQAPGQGLEWMGGIIPTLGTANYAQKFQGRVTITADESTSTAYMELSSLRSEDTAVYYCAGSWGISTPMDVWGQGTLVTVSS
VL: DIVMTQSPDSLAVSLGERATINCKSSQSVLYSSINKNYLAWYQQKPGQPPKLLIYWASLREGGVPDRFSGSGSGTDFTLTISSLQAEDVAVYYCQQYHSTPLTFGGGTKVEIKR
For the molecule B15, the binding result in assay [1] and in assay [2] was “no binding (tested: 300 nM)” each time.

B16: COVID19_P21_E12 (scFv, V domains shown)
VH: QVQLVQSGAEVKKPGSSVKVSCKASGGTFISYAISWVRQAPGQGLEWMGGIIPTLGTYNYAQKFQGRVTITADESTSTAYMELSSLRSEDTAVYYCAGSWGISTPMDVWGQGTLVTVSS
VL: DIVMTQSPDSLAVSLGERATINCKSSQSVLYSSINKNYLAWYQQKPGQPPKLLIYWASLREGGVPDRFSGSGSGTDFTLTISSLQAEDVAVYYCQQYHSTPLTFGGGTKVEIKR
With B16, the binding result in assay [1] and in assay [2] was “no binding (tested: 300 nM)” in each case.

B17: COVID19_P09_E05 (scFv, V domains shown)
VH: QVQLVQSGAEVKKPGSSVKVSCKASGGTFSSYAISWVRQAPGQGLEWMGIIYPGDSTTRYSQKFQGRVTITADESTSTAYMELSSLRSEDTAVYYCYSGSGISTPMDVWGQGTLVTVSS
VL: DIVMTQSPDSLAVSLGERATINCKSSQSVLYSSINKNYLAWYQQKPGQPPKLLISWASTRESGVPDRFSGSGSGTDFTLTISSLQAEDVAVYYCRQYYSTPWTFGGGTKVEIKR
Regarding B17, the binding result in assay [1] and in assay [2] was “no binding (tested: 300 nM)” each time.

B18: COVID19_P10_B06 (scFv, V domains shown)
VH: QVQLVQSGAEVKKPGSSVKVSCKASGGTFSSYAISWVRQAPGQGLEWMGIIYPGDSTTRYSQKFQGRVTITADESTSTAYMELSSLRSEDTAVYYCYSGSGISTPMDVWGQGTLVTVSS
VL: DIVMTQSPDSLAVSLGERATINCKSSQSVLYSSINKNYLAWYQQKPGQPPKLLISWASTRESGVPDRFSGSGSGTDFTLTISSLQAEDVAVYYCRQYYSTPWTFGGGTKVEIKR
In the case of B18, the binding result in assay [1] and in assay [2] was “no binding (tested: 300 nM)” throughout.

B19: COVID19_P09_A09 (scFv, V domains shown)
VH: QVQLVQSGAEVKKPGSSVKVSCKASGGTFSSYAISWVRQAPGQGLEWMGIIYPGDSTTRYSQKFQGRVTITADESTSTAYMELSSLRSEDTAVYYCYSGSGISTPMDVWGQGTLVTVSS
VL: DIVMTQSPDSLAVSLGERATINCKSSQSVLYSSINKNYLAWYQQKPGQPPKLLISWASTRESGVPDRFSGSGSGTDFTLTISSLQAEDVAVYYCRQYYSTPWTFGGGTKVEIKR
On to B19, for which the binding result in assay [1] and in assay [2] was “no binding (tested: 300 nM)” throughout.

Source of the values: patent US20240270825A1 (CENTIVAX, published 2024).
